Values of other authors in paper PMC3937454.

Assays:
Lys143 = Lys143 (UniProt position 161, ASHLRKLRKRL); settings: not stated (lipid-free or lipid-bound state not specified for the quoted values)
Lys146 = Lys146 (UniProt position 164, LRKLRKRLLRD); settings: not stated (lipid-free or lipid-bound state not specified for the quoted values)

Substance: Apolipoprotein E3 (apoE3) (Homo sapiens)
- pKa (Lys143): 9.5
- pKa (Lys146): 9.2
